Data as given in patent US20100196282A1, “OPTICAL IMAGING AGENTS” (priority 2007, published 2010).
pKd: −log10 of the molar value. Where a SMILES comes first, the peptide text is derived from it. Bridges are numbered along the chain shown (N, C = ends). The star is where a group is joined. X5 = CCN1c2cc3c(cc2C(C)=CC1(C)C)/C(=C/C=C/C1=[N+](CCCS(=O)(=O)O)c2ccc(S(=O)(=O)[O-])cc2C1(C)CCCC(=O)*)C=C(C(C)(C)C)O3; X4 = CCN(CC)c1ccc2c(c1)OC(C(C)(C)C)=C/C2=C\C=C\C1=[N+](CCCS(=O)(=O)O)c2ccc(S(=O)(=O)[O-])cc2C1(C)CCCC(=O)*; X6 = CCN(CC)c1ccc2c(c1)OC(C(C)(C)C)=C/C2=C\C=C\C1=[N+](CCCCCC(=O)*)c2ccc(S(=O)(=O)[O-])cc2C1(C)C

Key:
human serum albumin [1] = molecular target: T1, human serum albumin (Homo sapiens, UniProt P02768)
human serum albumin [2] = molecular target: T1, human serum albumin; experiment: in vitro
Source text: Fluorescence polarisation assay was used to examine the affinity binding of the imaging agent towards the cMet target as well as the binding properties related to plasma proteins. The principle of the fluorescence polarisation method can briefly be described as follows:
(§1) The change of the polarization value was used to assess the binding of the Compound to human serum albumin as a low change of polarisation value is associated to low binding being appropriate for in-vivo use.

in vitro = settings: mouse, plasma
Source text: as §1

human c-Met/Fc chimera = molecular target: T2, human c-Met/Fc chimera (Homo sapiens, UniProt P08581); experiment: Fluorescence polarisation assay, affinity binding to cMet; settings: 5 nM dye-labelled peptide, c-Met/Fc 0-250 nM, 10 min at 30° C., one-site binding
T2 construct: Fc (immunoglobulin Fc fusion partner); purchased R&D Systems
Experimental: Monochromatic light passes through a […] polarizing filter and excites fluorescent molecules in the sample. Only those molecules that oriented properly in the vertically polarized plane adsorb light, become excited, and subsequently emit light. The emitted light is measured in both horizontal and vertical planes. The anisotropy value (A), is the ratio between the light intensities following the equation
The fluorescence anisotropy measurements were performed in 384-well microplates in a volume of 10 μL in binding buffer (PBS, 0.01% Tween-20, pH 7.5) using a Tecan Safire fluorescence polarisation plate reader (Tecan, US) at Ex 635/Em 678 nm. The concentration of dye-labelled peptide was held constant (5 nM) and the concentration of the human c-Met/Fc chimera (R&D Systems) was varied from 0-250 nM. Binding mixtures were equilibrated in the microplate for 10 min at 30° C. The observed change in anisotropy was fitted to the equation: […]
where robs is the observed anisotropy, rfree is the anisotropy of the free peptide, rbound is the anisotropy of the bound peptide, Kd is the dissociation constant, cMet is the total c-Met concentration, and P is the total dye-labelled peptide concentration. The equation assumes that the synthetic peptide and the receptor form a reversible complex in solution with 1:1 stoichiometry. Data fitting was done via nonlinear regression using SigmaPlot software to obtain the Kd value (one-site binding).
Compounds 1 to 6 were tested for binding towards human c-Met (Fc chimera).

T2 sequence (P08581 with tags, fused parts or gaps limits assumed): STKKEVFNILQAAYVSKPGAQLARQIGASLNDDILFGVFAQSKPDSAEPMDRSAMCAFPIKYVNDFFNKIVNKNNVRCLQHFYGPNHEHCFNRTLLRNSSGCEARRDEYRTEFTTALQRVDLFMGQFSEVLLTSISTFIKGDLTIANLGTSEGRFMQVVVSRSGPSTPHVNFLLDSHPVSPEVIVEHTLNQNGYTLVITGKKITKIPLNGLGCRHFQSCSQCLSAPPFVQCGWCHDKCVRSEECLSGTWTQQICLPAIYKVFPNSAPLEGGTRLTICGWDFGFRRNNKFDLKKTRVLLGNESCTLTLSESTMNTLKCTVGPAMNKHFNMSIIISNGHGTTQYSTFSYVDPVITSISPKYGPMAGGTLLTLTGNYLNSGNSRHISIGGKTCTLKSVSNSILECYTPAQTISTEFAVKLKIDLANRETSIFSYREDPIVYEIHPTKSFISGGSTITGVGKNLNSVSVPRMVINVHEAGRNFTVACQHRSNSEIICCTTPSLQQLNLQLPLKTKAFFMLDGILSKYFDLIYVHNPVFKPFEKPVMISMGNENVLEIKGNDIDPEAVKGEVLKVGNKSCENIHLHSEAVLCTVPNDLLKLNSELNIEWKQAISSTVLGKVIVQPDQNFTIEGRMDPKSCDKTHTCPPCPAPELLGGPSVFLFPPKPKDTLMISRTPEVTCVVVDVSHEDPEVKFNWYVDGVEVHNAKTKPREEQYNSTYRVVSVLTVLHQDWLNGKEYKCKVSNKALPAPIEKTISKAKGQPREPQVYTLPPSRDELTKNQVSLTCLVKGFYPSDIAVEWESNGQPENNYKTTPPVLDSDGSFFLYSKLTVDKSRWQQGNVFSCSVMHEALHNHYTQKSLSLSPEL
T2 sequence (P08581 25-307 limits assumed, change not shown): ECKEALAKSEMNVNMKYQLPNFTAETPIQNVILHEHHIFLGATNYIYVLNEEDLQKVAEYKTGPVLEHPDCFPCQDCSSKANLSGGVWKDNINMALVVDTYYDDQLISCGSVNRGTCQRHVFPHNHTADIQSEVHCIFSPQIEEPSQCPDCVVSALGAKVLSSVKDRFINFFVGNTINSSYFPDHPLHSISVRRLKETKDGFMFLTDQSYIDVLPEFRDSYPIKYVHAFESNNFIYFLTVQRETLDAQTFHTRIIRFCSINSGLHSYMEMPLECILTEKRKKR
T1 sequence (P02768 25-609): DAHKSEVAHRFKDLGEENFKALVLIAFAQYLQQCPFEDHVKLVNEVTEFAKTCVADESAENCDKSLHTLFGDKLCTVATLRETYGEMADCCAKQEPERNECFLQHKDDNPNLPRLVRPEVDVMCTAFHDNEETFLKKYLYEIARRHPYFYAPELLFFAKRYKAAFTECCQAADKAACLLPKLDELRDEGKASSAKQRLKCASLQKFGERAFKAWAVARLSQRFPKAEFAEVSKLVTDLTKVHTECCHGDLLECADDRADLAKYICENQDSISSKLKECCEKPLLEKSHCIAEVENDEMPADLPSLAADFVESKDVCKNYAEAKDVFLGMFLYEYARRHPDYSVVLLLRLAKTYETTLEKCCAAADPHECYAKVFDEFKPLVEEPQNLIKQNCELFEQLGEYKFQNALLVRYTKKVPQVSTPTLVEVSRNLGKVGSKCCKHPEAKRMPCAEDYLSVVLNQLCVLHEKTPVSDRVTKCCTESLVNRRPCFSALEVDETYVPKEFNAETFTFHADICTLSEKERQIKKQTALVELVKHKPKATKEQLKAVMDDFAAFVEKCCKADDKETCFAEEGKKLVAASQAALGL

| Compound | Binding human serum albumin (Biacore) (human serum albumin [1]) | fraction unbound (human serum albumin [2]) | remaining at 2 h (in vitro) | pKd (human c-Met/Fc chimera) |
| --- | --- | --- | --- | --- |
| CCN(CC)c1ccc2c(c1)OC(C(C)(C)C)=C/C2=C\C=C\C1=[N+](CCCCCC(=O)NCCCC[C@H](NC(=O)CNC(=O)CNC(=O)CNC(=O)[C@@H](NC(=O)CNC(=O)[C@H](CCC(=O)O)NC(=O)[C@@H](NC(=O)[C@H](CCC(=O)O)NC(=O)[C@H](Cc2ccc(O)cc2)NC(=O)[C@@H]2CSSC[C@H](NC(=O)[C@H](CO)NC(=O)CNC(=O)[C@H](C)NC(C)=O)C(=O)N[C@@H](Cc3ccc(O)cc3)C(=O)N[C@H]3CSSC[C@H](NC(=O)[C@H](CCC(=O)O)NC(=O)[C@H](Cc4ccccc4)NC(=O)[C@H](CCCNC(=N)N)NC(=O)[C@@H]4CCCN4C(=O)[C@@H]4CCCN4C(=O)CNC(=O)[C@H](CO)NC3=O)C(=O)N[C@@H](Cc3c[nH]c4ccccc34)C(=O)N2)[C@@H](C)O)[C@@H](C)O)C(N)=O)c2ccc(S(=O)(=O)[O-])cc2C1(C)C [Compound 1] (Ac-AGSCYCSGPPRFECWCYETEGTGGGK(X6)-NH2; disulfide 4-16, 6-14) | Very high | 0.64 | > 95% | 8.66 |
| CCN(CC)c1ccc2c(c1)OC(C(C)(C)C)=C/C2=C\C=C\C1=[N+](CCCS(=O)(=O)O)c2ccc(S(=O)(=O)[O-])cc2C1(C)CCCC(=O)NCCCC[C@H](NC(=O)CNC(=O)CNC(=O)CNC(=O)[C@@H](NC(=O)CNC(=O)[C@H](CCC(=O)O)NC(=O)[C@@H](NC(=O)[C@H](CCC(=O)O)NC(=O)[C@H](Cc1ccc(O)cc1)NC(=O)[C@@H]1CSSC[C@H](NC(=O)[C@H](CO)NC(=O)CNC(=O)[C@H](C)NC(C)=O)C(=O)N[C@@H](Cc2ccc(O)cc2)C(=O)N[C@H]2CSSC[C@H](NC(=O)[C@H](CCC(=O)O)NC(=O)[C@H](Cc3ccccc3)NC(=O)[C@H](CCCNC(=N)N)NC(=O)[C@@H]3CCCN3C(=O)[C@@H]3CCCN3C(=O)CNC(=O)[C@H](CO)NC2=O)C(=O)N[C@@H](Cc2c[nH]c3ccccc23)C(=O)N1)[C@@H](C)O)[C@@H](C)O)C(N)=O (stereo partly drawn) [Compound 2] (Ac-AGSCYCSGPPRFECWCYETEGTGGGK(X4)-NH2; disulfide 4-16, 6-14) | Very low | 0.67 | > 95% | 9.30 |
| CCN1c2cc3c(cc2C(C)=CC1(C)C)/C(=C/C=C/C1=[N+](CCCS(=O)(=O)O)c2ccc(S(=O)(=O)[O-])cc2C1(C)CCCC(=O)NCCCC[C@H](NC(=O)CNC(=O)CNC(=O)CNC(=O)[C@@H](NC(=O)CNC(=O)[C@H](CCC(=O)O)NC(=O)[C@@H](NC(=O)[C@H](CCC(=O)O)NC(=O)[C@H](Cc1ccc(O)cc1)NC(=O)[C@@H]1CSSC[C@H](NC(=O)[C@H](CO)NC(=O)CNC(=O)[C@H](C)NC(C)=O)C(=O)N[C@@H](Cc2ccc(O)cc2)C(=O)N[C@H]2CSSC[C@H](NC(=O)[C@H](CCC(=O)O)NC(=O)[C@H](Cc4ccccc4)NC(=O)[C@H](CCCNC(=N)N)NC(=O)[C@@H]4CCCN4C(=O)[C@@H]4CCCN4C(=O)CNC(=O)[C@H](CO)NC2=O)C(=O)N[C@@H](Cc2c[nH]c4ccccc24)C(=O)N1)[C@@H](C)O)[C@@H](C)O)C(N)=O)C=C(C(C)(C)C)O3 (stereo partly drawn) [Compound 5] (Ac-AGSCYCSGPPRFECWCYETEGTGGGK(X5)-NH2; disulfide 4-16, 6-14) | Medium | 0.51 | > 95% | 8.66 |
